# In article PMC7112232, “Computational design of substrate selective inhibition” (PLoS Computational Biology, 2020):
# B1: Prolyl Oligopeptidase (POP) (Homo sapiens) (protein)
# chain: MLSLQYPDVYRDETAVQDYHGHKICDPYAWLEDPDSEQTKAFVEAQNKITVPFLEQCPIRGLYKERMTELYDYPKYSCHFKKGKRYFYFYNTGLQNQRVLYVQDSLEGEARVFLDPNILSDDGTVALRGYAFSEDGEYFAYGLSASGSDWVTIKFMKVDGAKELPDVLERVKFSCMAWTHDGKGMFYNSYPQQDGKSDGTETSTNLHQKLYYHVLGTDQSEDILCAEFPDEPKWMGGAELSDDGRYVLLSIREGCDPVNRLWYCDLQQESSGIAGILKWVKLIDNFEGEYDYVTNEGTVFTFKTNRQSPNYRVINIDFRDPEESKWKVLVPEHEKDVLEWIACVRSNFLVLCYLHDVKNILQLHDLTTGALLKTFPLDVGSIVGYSGQKKDTEIFYQFTSFLSPGIIYHCDLTKEELEPRVFREVTVKGIDASDYQTVQIFYPSKDGTKIPMFIVHKKGIKLDGSHPAFLYGYGGFNISITPNYSVSRLIFVRHMGGILAVANIRGGGEYGETWHKGGILANKQNCFDDFQCAAEYLIKEGYTSPKRLTINGGSNGGLLVAACANQRPDLFGCVIAQVGVMDMLKFHKYTIGHAWTTDYGCSDSKQHFEWLVKYSPLHNVKLPEADDIQYPSMLLLTADHDDRVVPLHSLKFIATLQYIVGRSRKQSNPLLIHVDTKAGHGAGKPTAKVIEEVSDMFAFIARCLNVDWIP
# notes: recombinant human POP (rhPOP), GST moiety removed
# Substrate: NC(=O)[C@@H]1CCCN1C(=O)[C@H](Cc1cnc[nH]1)NC(=O)[C@@H]1CCC(=O)N1
# Experiment: RP-HPLC cleavage assay with purified rhPOP, Michaelis-Menten fit (Km)
# Assay type: biochemical, Homo sapiens
# Details: occupies the S3-S1' sub-pockets
protein,measurement,value
B1,Km,690 µM
